# Experimental data reported in paper PMC3889140 (Bioorganic & medicinal chemistry letters, 2013).
# Entries after “also recorded” stand apart in the source; their conditions may differ. Positions of bridges follow the written chain, without caps; N, C: chain ends. Non-standard residues stand in square brackets, D forms with d. Residues, ends and D or L forms follow the SMILES beside them.
# How the values were obtained:
# [1] = tested on: B16/F1 melanoma cells; experiment: Cellular internalization in B16/F1 melanoma cells; assay type: cell-based, murine
# [2] = in vivo; set-up: species or system C57 mice; conditions: C57, mouse, iv, total radioactivity; for tissue uptake dose at 2 h: percent injected dose
# [3] = tested on: B16/F1 melanoma-bearing C57 mouse; experiment: SPECT/CT melanoma imaging; assay type: in vivo; conditions: flank B16/F1 melanoma, 2 h post-injection, about 7.4 MBq, one mouse
# [4] = 0.037 MBq, Kidneys (renal) uptake
# [5] = 0.037 MBq, Uptake ratio Tumor/Lung
smiles,measurement,setting,value
"CC(C)[C@H](NC(=O)[C@@H]1CCCN1C(=O)[C@H](CCCNC(=N)N)NC(=O)[C@H](CS)NC(=O)[C@H](Cc1c[nH]c2ccccc12)NC(=O)[C@H](CCCNC(=N)N)NC(=O)[C@@H](Cc1ccccc1)NC(=O)[C@H](Cc1c[nH]cn1)NC(=O)[C@H](CCC(=O)O)NC(=O)[C@H](CS)NC(=O)[C@H](CS)NC(=O)[C@H](CCCNC(=N)N)NC(=O)[C@@H]1CC(=O)N[C@@H](CCCNC(=N)N)C(=O)N[C@@H](C)C(=O)N[C@@H](CC(=O)O)C(=O)N[C@H](Cc2ccc(O)cc2)C(=O)N1)C(N)=O [^99mTc-RAD-Arg-(Arg^11)CCMSH, metal not drawn] (RAD[dY]DRCCEH[dF]RWCRPV-NH2; lactam N-5; C-terminus assumed)",activity internalized,[1]; 20 min post incubation,Approximately 77.81 ± 4.46%
same,activity internalized,[1]; after 2 h incubation,81.26 ± 4.81%
same,tissue uptake at 0.5 h,"[2]; 0.037 MBq, Blood uptake",3.43 ± 0.37 %ID/g
same,tissue uptake at 2 h,"[2]; 0.037 MBq, Blood uptake",0.59 ± 0.17 %ID/g
same,tissue uptake at 4 h,"[2]; 0.037 MBq, Blood uptake",0.1 ± 0.06 %ID/g
same,tissue uptake at 24 h,"[2]; 0.037 MBq, Blood uptake",0.04 ± 0.01 %ID/g
same,tissue uptake at 0.5 h,"[2]; 0.037 MBq, Bone uptake",1.97 ± 0.22 %ID/g
same,tissue uptake at 2 h,"[2]; 0.037 MBq, Bone uptake",0.64 ± 0.25 %ID/g
same,tissue uptake at 4 h,"[2]; 0.037 MBq, Bone uptake",0.34 ± 0.13 %ID/g
same,tissue uptake at 24 h,"[2]; 0.037 MBq, Bone uptake",0.14 ± 0.04 %ID/g
same,tissue uptake at 0.5 h,"[2]; 0.037 MBq, Brain uptake",0.16 ± 0.04 %ID/g
same,tissue uptake at 2 h,"[2]; 0.037 MBq, Brain uptake",0.04 ± 0.02 %ID/g
same,tissue uptake at 4 h,"[2]; 0.037 MBq, Brain uptake",0.02 ± 0.02 %ID/g
same,tissue uptake at 24 h,"[2]; 0.037 MBq, Brain uptake",0.02 %ID/g
same,tissue uptake at 0.5 h,"[2]; 0.037 MBq, Heart uptake",1.71 ± 0.58 %ID/g
same,tissue uptake at 2 h,"[2]; 0.037 MBq, Heart uptake",0.5 ± 0.14 %ID/g
same,tissue uptake at 4 h,"[2]; 0.037 MBq, Heart uptake",0.21 ± 0.03 %ID/g
same,tissue uptake at 24 h,"[2]; 0.037 MBq, Heart uptake",0.1 ± 0.02 %ID/g
same,tissue uptake at 0.5 h,[2]; [4],41.2 ± 4.48 %ID/g
same,tissue uptake at 2 h,[2]; [4],35.6 ± 9.61 %ID/g
same,tissue uptake at 4 h,[2]; [4],26.5 ± 0.62 %ID/g
same,tissue uptake at 24 h,[2]; [4],12 ± 2.29 %ID/g
same,tissue uptake at 0.5 h,"[2]; 0.037 MBq, Liver uptake",3.07 ± 0.08 %ID/g
same,tissue uptake at 2 h,"[2]; 0.037 MBq, Liver uptake",1.88 ± 0.35 %ID/g
same,tissue uptake at 4 h,"[2]; 0.037 MBq, Liver uptake",1.47 ± 0.11 %ID/g
same,tissue uptake at 24 h,"[2]; 0.037 MBq, Liver uptake",1.18 ± 0.28 %ID/g
same,tissue uptake at 0.5 h,"[2]; 0.037 MBq, Lung uptake",5.42 ± 0.7 %ID/g
same,tissue uptake at 2 h,"[2]; 0.037 MBq, Lung uptake",1.15 ± 0.22 %ID/g
same,tissue uptake at 4 h,"[2]; 0.037 MBq, Lung uptake",0.4 ± 0.16 %ID/g
same,tissue uptake at 24 h,"[2]; 0.037 MBq, Lung uptake",0.16 ± 0.03 %ID/g
same,tissue uptake at 0.5 h,"[2]; 0.037 MBq, Muscle uptake",0.8 ± 0.46 %ID/g
same,tissue uptake at 2 h,"[2]; 0.037 MBq, Muscle uptake",0.2 ± 0.15 %ID/g
same,tissue uptake at 4 h,"[2]; 0.037 MBq, Muscle uptake",0.15 ± 0.1 %ID/g
same,tissue uptake at 24 h,"[2]; 0.037 MBq, Muscle uptake",0.03 ± 0.02 %ID/g
same,tissue uptake at 0.5 h,"[2]; 0.037 MBq, Pancreas uptake",1.06 ± 0.33 %ID/g
same,tissue uptake at 2 h,"[2]; 0.037 MBq, Pancreas uptake",0.2 ± 0.11 %ID/g
same,tissue uptake at 4 h,"[2]; 0.037 MBq, Pancreas uptake",0.1 ± 0.05 %ID/g
same,tissue uptake at 24 h,"[2]; 0.037 MBq, Pancreas uptake",0.1 ± 0.05 %ID/g
same,tissue uptake at 0.5 h,"[2]; 0.037 MBq, Skin uptake",5.43 ± 0.41 %ID/g
same,tissue uptake at 2 h,"[2]; 0.037 MBq, Skin uptake",1.1 ± 0.39 %ID/g
same,tissue uptake at 4 h,"[2]; 0.037 MBq, Skin uptake",0.53 ± 0.09 %ID/g
same,tissue uptake at 24 h,"[2]; 0.037 MBq, Skin uptake",0.24 ± 0.1 %ID/g
same,tissue uptake at 0.5 h,"[2]; 0.037 MBq, Spleen uptake",2.12 ± 0.57 %ID/g
same,tissue uptake at 2 h,"[2]; 0.037 MBq, Spleen uptake",0.61 ± 0.31 %ID/g
same,tissue uptake at 4 h,"[2]; 0.037 MBq, Spleen uptake",0.25 ± 0.12 %ID/g
same,tissue uptake at 24 h,"[2]; 0.037 MBq, Spleen uptake",0.41 ± 0.14 %ID/g
same,tissue uptake at 0.5 h,"[2]; 0.037 MBq, Stomach uptake",3.13 ± 0.62 %ID/g
same,tissue uptake at 2 h,"[2]; 0.037 MBq, Stomach uptake",1.63 ± 0.43 %ID/g
same,tissue uptake at 4 h,"[2]; 0.037 MBq, Stomach uptake",1.41 ± 0.74 %ID/g
same,tissue uptake at 24 h,"[2]; 0.037 MBq, Stomach uptake",0.28 ± 0.09 %ID/g
same,tissue uptake at 0.5 h,"[2]; 0.037 MBq, Tumor uptake",8.46 ± 3.7 %ID/g
same,tissue uptake at 2 h,"[2]; 0.037 MBq, Tumor uptake",18 ± 4.96 %ID/g
same,tissue uptake at 4 h,"[2]; 0.037 MBq, Tumor uptake",14.1 ± 2.9 %ID/g
same,tissue uptake at 24 h,"[2]; 0.037 MBq, Tumor uptake",10.2 ± 2.66 %ID/g
same,tissue to tissue ratio at 0.5 h,[2]; [5],1.56
same,tissue to tissue ratio at 2 h,[2]; [5],15.6
same,tissue to tissue ratio at 4 h,[2]; [5],35.2
same,tissue to tissue ratio at 24 h,[2]; [5],63.5
same,tissue uptake dose at 2 h,[2]; Bladder,77.8 ± 2.34 %ID
same,tissue uptake dose at 2 h,[2]; Intestines,2.5 ± 0.16 %ID
same,tissue to tissue ratio at 2 h,[2]; Uptake ratio Tumor/Blood,2.41
same,tissue to tissue ratio at 2 h,[2]; Uptake ratio Tumor/Kidneys,0.09
same,tissue to tissue ratio at 2 h,[2]; Uptake ratio Tumor/Liver,1.12
same,tissue to tissue ratio at 2 h,[2]; Uptake ratio Tumor/Lung,1.73
same,tissue to tissue ratio at 2 h,[2]; Uptake ratio Tumor/Muscle,10.4
same,melanoma imaging by SPECT/CT,[3],visualized clearly; also recorded: clearly imaged
